Results taken from publication PMC12167710 (Nature Biotechnology, 2024).

Biological target: T1, receptor-binding domain (RBD) of the wild-type SARS-CoV-2 spike protein (SARS-CoV-2, UniProt P0DTC2 333-527)
T1 construct: also called SARS-CoV-2 RBD
Experiment: ELISA
Conditions: both partners purified

| Binder | EC50 [nM] |
| --- | --- |
| mRBD1 (antibody, V domains shown) VH: QVQLQQPGAELVKPGASVKVSCKASGYTFTSYWMHWVKQRPGQGLEWIGRIHPSDSDTNYNQKFKGKATLTVDKSSNTAYMQLSSLTSEDSAVYYCAILDCYWYFDVWGTGTTVTVSS VL: QIVLTQSPAIMSASPGEKVTMTCSASSSVSYMYWYQQKPGSSPRLLIYDTSNLASGVPVRFSGSGSGTSYSLTISRMEAEDAATYYCQQWSSYPLTFGAGTKLELK | 0.134 |
| mRBD18 (antibody, V domains shown) VH: QIQLVQSGPELKKPGETVKISCKASGYTFTDYPMHWVQQAPGKGFKWMGMIYTDTGEPTYAEEFKGRFAFSLETSASTAYLQINNLKNEDTATYFCVRWAGYFDYWGQGTTLTVSS VL: DIVLTQSPASLAVSLGQRATISCRASESVDSYGNSFMDWYQQKPGQPPKLLIYRASNLESGIPARFSGSGSRTDFTLIINPVEADDVATYYCQQSNEHPLTFGAGTKLELK | 0.222 |
| mRBD12 (antibody, V domains shown) VH: QVQLQQSGAELARPGASVKLSCKASGYTFTSYGISWVKQRTGQGLEWIGEIYPRSGNTYYNEKFKGKATLTADKSSSTAYMEVRSLTSEDSAVYFCAREGGYGYVMDYWGQGTSVTVSS VL: DIQMTQTTSSLSASLGDRVTISCRASQDISNYLNWYQQKPDGTVKLLIYYTSRLHSGVPSRFSGSGSGTDYSFTISNLEQEDIATYFCQQGNTLPWTFGGGTKLEIK | 0.109 |
| mRBD17 (antibody, V domains shown) VH: QIQLVQSGPELKKPGETVKISCKASGYTLTEYPMHWVKQAPGKGFKWMGMIYTDTGEPTYAEEFKGRFAFSLETSASTAYLQINNLKNEDTATYFCVRAGPSFAMDYWGQGTSVTVSS VL: DIQMTQTTSSLSASLGDRVTISCRASQDISNYLNWYQQKPDGTVKLLIYYTSRLHSGVPSRFSGSGSGTDYSLTISNLEQEDFATYFCQQGNTLPYTFGGGTKLEIK | 14.8 |
| mRBD16 (antibody, V domains shown) VH: QIQLVQSGPELKKPGETVKISCKASGYTLTEYPMHWVKQAPGKGFKWMGMIYTDTGEPTYAEEFKGRFAFSLETSASTAYLQINNLKNEDTATYFCVRAGPSFAMDYWGQGTSVTVSS VL: NIVLTQSPASLAVSLGQRATISCRASESVDSYGNSFMHWYQQKPGQPPKLLIYLASNLESGVPARFSGSGSRTDFTLTIDPVEADDAATYYCQQNNEDPYTFGGGTKLEIK | 0.0895 |
| mRBD21 (antibody, V domains shown) VH: QIQLVQSGPELKKPGETVKISCKASGYTFTKYPMHWVKQAPGKGFKWMGMIYTDTGEPTYAEEFKGRCAFSLETSASTAYLQINNLKNEDTATYFCVRWGGSYALDYWGQGTSVTVSS VL: DIVLTQSPASLAVSLGQRATISCRASESVDSYGNSFMHWYQQKPGQPPKLLIYRASNLESGIPARFSGSGSRTDFTLTINPVEADDVATYYCQQSNEDPLTFGAGTKLELK | 0.18 |
| mRBD15 (antibody, V domains shown) VH: QIQLVQSGPDLKKPGETVKISCKASGYTFTEYPMHWVKQAPGKGFQWMGMIYTDTGEPTYAEEFKGRFAFSLETSASTAYLQINNLKNEDTSTYFCVRAGPSYAMDYWGQGTSVTVSS VL: NIVLTQSPASLAVSLGQRATISCRASESVDSYGNSFMHWYQQKPGQPPKLLIYLASNVESGVPARFSGSGSRTDFTLTIDPVEADDAATYYCHQINEDPYTFGGGTKLEIK | 0.124 |
| mRBD19 (antibody, V domains shown) VH: QIQLVQSGPELKKPGETVKISCKASGYTFTEYPMHWVKQAPGKGFKWMGMIYTDTGEPTYAEEFKGRFAFSLETSASTAYLQINNLKNEDTATYFCVRGGPYYAMDYWGQGTSVTVSS VL: NIVLTQSPASLAVSLGQRATISCRASESVDSYGNSFMHWYQQKPGQPPKLLIYLASNLESGVPARFSGSGSRTDFTLTIDPVEADDAATYYCQQNNEDPWTFGGGTKLEIK | 0.123 |
| mRBD20 (antibody, V domains shown) VH: QIQLVQSGPELKKPGETVKISCKASGYTLTEYPMHWVKQAPGKGFKWMGMIYTDTGEPTYAEEFKGRFAFSLETSASTAYLQINNLKNEDTATYFCVRAGPSYAMDYWGQGTSVTVSS VL: NIVLTQSPASLAMSLGQRATISCRASESVDSYGNSFMHWYQLKPGQPPKLLIYLASNLESGVPARFSGSGSRTDFTLTIDPVEADDAATYYCQQNNEDPYTFGGGTKLEIK | 0.153 |
